Data on 17 molecules can be found in patent US20150086555A1.

What all share (settings): remark: other sources report otherwise
Assay [1] deals with recombinant homotrimeric HA A/common magpie/Hong Kong/5052/07 H5N1 (Influenza A virus A/common magpie/Hong Kong/5052/2007(H5N1)). Nature of the assay: protein microarray, purified IgG, trimeric HA.
Assay [2] concerns the target T1, recombinant soluble homotrimeric HA of A/common magpie/Hong Kong/5052/07 (H5N1) (Influenza A virus A/common magpie/Hong Kong/5052/2007(H5N1)). Description: trimeric HA microarray, transfection supernatant set 5.
Assay [3] deals with T1, recombinant soluble homotrimeric HA of …. Nature of the assay: trimeric HA microarray, transfection supernatant set 2.
The target of assay [4] is recombinant soluble homotrimeric HA, A/common magpie/Hong Kong/5052/07 H5N1 (Influenza A virus A/common magpie/Hong Kong/5052/2007(H5N1)). Description: microarray, transfection SN IgG, trimeric HA.
The target of assay [5] is T1, recombinant soluble homotrimeric HA of …. Description: HA microarray, BCC supernatant.

B1: TCN-546 (5089_L08) (antibody, V domains shown)
VH: QVQLQQWGAGLLKPSETLSLTCGVYGGSLSDYYWSWIRQPPGKGLEWIGEINHSGGTNYNPSLKRRVTISVDTSKKQFSLKMNSVTAADTAVYYCARGTDPDTEVYCRAGNCAAFDFWGQGTLVTVSS
VL: EIVLTQSPGTLSLSPGERATLSCRASHFVIGRAVAWYQQKPGQAPRLLIYGASSRATGIPDRFSGSGSGTDFTLTISRLETEDFAVFYCQHYGSSPRYAFGQGTKLEIK
Take B1: the figures for the Trimeric HA Binding: RLU in assay [1] and in assay [2] were 810 RLU and 1920 RLU, respectively.

B2: TCN-527 (5086_C06) (antibody, V domains shown)
VH: QVQLQESGPGLVKPSETLSLNCAVSGGSISNYYWSWIRQPPGKGLEWIGYISYNGRPKYNPSLTSRVTISVDTSKDQFSLELRSVTAADTALYYCARETRFGELLSPYDAFEIWGQGTMVTVSS
VL: DIQMTQSPSSLSASVGDRVTMTCRASQNIRSYLNWYQQRPGTAPKLLIYAASTLHSGVPSRFSGGGSGTDFTLTINNLQPEDFASYYCQQSYDNPQTFGQGTKVEIK
Turning to B2, the Trimeric HA Binding: RLU in assay [1] is 24600 RLU; in assay [3] it was 43800 RLU.

B3: TCN-557 (5081_A04) (antibody, V domains shown)
VH: QVQLVQSGAEVKKPGASVKVSCKASGHTFTGYYIHWVRQAPGQGLEWMGWINPDSGATSSAQNFQGRVTMTGDTSSSTAYMELSRLSFDDTAVYYCARVLFTSPFDFWGEGTLVTVSS
VL: QAVVTQEPSLAVSPGGTVTLTCGSSTGAVTRGHYPYWFQQKPGQAPRALIYDSAGNRHSWTPARFSGSLLGGKAALTLSGAQPEDEAEYYCLLSYSGVWVFGGGTKLTVL
With B3, the Trimeric HA Binding: RLU was found to be 23700 RLU in assay [1] and 54900 RLU in assay [4].

B4: TCN-541 (5062_M11) (antibody, V domains shown)
VH: QVQLQESGPGLVKPSETLSLTCTVSGGSINSYYWNWIRQPPGKGLEWIGYIYHSGSTNYNPSLKSRVTISVDTSKNQFSLQLSSVTAADTAVYYCARLRTDYGDPDSVYYYGMDVWGQGTTVTVSS
VL: SYELTQPPSVSVSPGQTARITCSGDALPKQNAYWYQQKPGQAPVLLIYKDSERPSGIPERFSGSSSGTTVTLTISGVQAEDEADYYCQSADSSGTSWVFGGGTKLTVL
Consider B4, for which the Trimeric HA Binding: RLU in assay [1] worked out at 728 RLU.

B5: TCN-528 (5087_P17) (antibody, V domains shown)
VH: QVQLVQSGSEVKKPGASVKVSCKASGYTFTNYDINWIRQAPGQGLEWMGWINPNSGTTGSAQRFQGRVTITVDTSITTVYMELSSLRSDDTAIYYCARGRELLRLQHFLTDSQSERRDCFDPWGQGTLVTVSS
VL: DIQMTQSPSSLSASVGDRVTITCRANQDIGIYLNWYQQNPGKVPKLLLHGASSLQGGVPSRFSASGSGTDFTLTIHSLQPEDLATYYCQQSRRLPYTFGQGTRVELK
With B5, the Trimeric HA Binding: RLU was 25500 RLU in assay [1] and 45300 RLU in assay [3].

B6: TCN-555 (5246_L16) (antibody, V domains shown)
VH: QVQLVQSGAEVKRPGSSVKVSCTASGGIFRKNAISWVRQAPGQGLEWMGGIIAVFNTANYAQKFQNRVKITADESGNTAYMELSSLTSDDTAVYYCASHPKYFYGSGSYPDFWGQGTLVTVSS
VL: QSALTQPRSVSGSPGQSITISCTGGSSDIGASNSVSWYQQHPGKAPKLVIFDVTERPSGVPHRFSGSKSGNTASLTVSGLQPDDEADYFCCAYGGKYLVVFGGGTKVTVL
On to B6, for which the Trimeric HA Binding: RLU in assay [1] is 17000 RLU; in assay [5], 16100 RLU; in assay [4] it was 33600 RLU.

B7: TCN-545 (5082_I15) (antibody, V domains shown)
VH: QVQLQQWGAGLLKPSETLSLSCAVFGGSFSDYYWTWIRQPPGKGLEWIGEIKHSGRTNYNPSLESRVTISVDTSKNQFSLKLSSVTAADTAIYYCARGTDPDTEGYCRSGSCSAFDFWGQGTLVTVSS
VL: EIVLTQSPGTLSLSPGERATLSCRASHFVNYRSLAWYQQTPGQVPRLLIYGASTRATGIPDRFSGSGSGTDFTLTISRLEPEDFAVYFCQQYGGSPRYTFGQGTRLEIK
Consider B7, for which the Trimeric HA Binding: RLU was determined as 804 RLU in assay [1] and 1390 RLU in assay [2].

B8: TCN-539 (5056_A08) (antibody, V domains shown)
VH: QVQLVESGGGVVQPGRSLRLSCAASEITFITYAMHWVRQAPGKGLEWVALISDDGSNKFYADSVKGRFTISRDNSKNTLYLQMNSLRAEDTAAYYCAREGVYFDSGTYRGYFDYWGQETLVTVSS
VL: EIVLTQSPATLSLSPGERATLSCRASQSVSSYLAWYQQKPGQAPRLLIYDASNRATGIPARFSGSGSGTDFTLTISSLEPEDFAVYYCQQRSHWPPITFGQGTRLEIK
Take B8: in assay [5], the Trimeric HA Binding: RLU is 3960 RLU.

B9: TCN-550 (5096_F06) (antibody, V domains shown)
VH: QVQLQESGPGLVKPSETLSLTCTVSGASINSHYWSWIRQPPGKGLEWIGYVYYSGSTTYNPSLKSRVTLSVDTSKNQFSLNLSSVTAADTAFYYCARHPYDVLTGSGDWFDPWGQGTLVTVSS
VL: SYVLTQAPSVSVAPGQTARITCGGNAIGSKKVHWYQHKAGQAPVLVVYDDTDRPSGIPERFSGSNSWSTATLTINRVEAGDEADYYCQVWDFTIDHVVFGGGTKLTVL
Take B9: the Trimeric HA Binding: RLU came to 753 RLU in assay [1] and 993 RLU in assay [4].

B10: TCN-521 (3280_D18) (antibody, V domains shown)
VH: EVQLVQSGGGLVQPGGSLRLACVVSGFTVTSNYITWVRQAPGKGLEWVSVIYSHGRAYYSASVNGRFTISRHTSKNTVYLEMNSLRPEDTAVYYCAGGGLVGGYDEYFFDYWGQGTLATVSS
VL: ETVLTQSPGTLSLTPGERATLSCRVGQSVSGSHLAWYQQKPGQAPRLLIYGASSRATGIPDRFGGSVSGTDFTLTISRLEPEDSAVYYCQQYGDSRYTFGQGTKLEIK
B10: the Trimeric HA Binding: RLU in assay [5] was found to be 13500 RLU.

B11: TCN-552 (5249_I23) (antibody, V domains shown)
VH: QVQVVQSGAEVKKPGSSVRVSCQASGGTFMNYAIIWVRRAPGQGLEWMGGIIPVFPTPNYAQMFQGRVTISTDESRSTSFLELTNLRYEDTAVYYCARRIYHGGNSGFDFWGQGTLVTVSS
VL: EIVLTQSPATLSLSPGERATLSCRASQSVGNYLAWYQQKPGQAPRLLIYDSSNRAPGIPARFSGSGSGTDFTLTISSLAPEDFAVYYCQQRSKWPPMYSFGHGTKLEIK
For B11, the Trimeric HA Binding: RLU in assay [1] is 19400 RLU; in assay [5] it was 42200 RLU; in assay [4] it was 34600 RLU.

B12: TCN-543 (5081_G23) (antibody, V domains shown)
VH: QVHLVQSGAEVRKPGDSVKVSCKTSGYTFSTYPVAWVRQVPGQGLEWMGWISTYNGNTNFAQNFQGRVTLTTDTTTNTAYMEVRSLKFDDTAVYYCARVEGSYRDFWNNQNRFDPWGQGTLVTVSS
VL: SYVLTQPPSVSVAPGQTARISCGGSNIGGKSVHWYQQKPGQAPVLVVYDDSGRPSGIPERFSGSNSGDTATLTISRVEAGDEADYFCQVWDNFGGVFGTGTKVTVL
On to B12, for which the Trimeric HA Binding: RLU in assay [1] worked out at 679 RLU; in assay [2] it was 1070 RLU.

B13: TCN-553 (5261_C18) (antibody, V domains shown)
VH: QVQVVQSGTEVKKPGSSVKVSCQTSGGRFMSYAITWVRQAPGQGLEWMGGIVPVFGTANYAQKFQGRVTITTDDSTRTAYMELSSLRSEDTAVYYCGFRYGSGYGFDSWGQGTLVTVSS
VL: EIVLTQSPGTLSLSPGERATLSCRASQSVSSSYLAWYQKKPGQAPRLLIYGASTRATGIPDRFTGSGSGTDFTLSISRLEPEDFAVYYCQHFGTSVFTFGGGTKVEIK
Turning to B13, the Trimeric HA Binding: RLU worked out at 22800 RLU in assay [1], 26000 RLU in assay [5] and 39200 RLU in assay [4].

B14: TCN-551 (5243_D01) (antibody, V domains shown)
VH: EVQLVQSGSEVKKPGESLKISCKGSGYSFSNYWIGWVRHMPGKGLEWMGIIYPGDSDTRYSPSFQGQVTMSADKSSSTVYLQWSSLKASDTAIYYCARRGGHSFGYGSGGDTHSEFDSWGQGTLVTVSS
VL: QSVLTQSPSVSAAPGQKVTISCSGSDSNIGDYFVCWYQHLPGKPPQLLIYENNKRPSGIPDRFSGSKSGTSATLGITGIQTGDEADYYCATWDGSLSAWVFGGGTKLTVL
Take B14: the values for the Trimeric HA Binding: RLU in assay [1] and in assay [5] were 907 RLU and 45700 RLU, respectively.

B15: TCN-522 (3212_I12) (antibody, V domains shown)
VH: QVQLQQWGAGLLKPSETLSLTCTVSGGSLTDYSWNWIRQPPGKGLEWIGDTLHNGYTNYNPSLRGRVSISIDTSKNQVSLRLTSVTAADTALYYCARGSGGYGGFDYFGKLRTWDFWGQGTLVTVSS
VL: DIQLTQSPSSLSASVGDRVTITCRASQGIRNDLGWYQQKPGNAPKRLIFGASSLQSGVPSRFSGSGSGTEFTLTISSLQPEDFATYYCLQHNSYPYTFGQGTKLEIK
Regarding B15, the Trimeric HA Binding: RLU in assay [1] is 15100 RLU; in assay [3], 21400 RLU.

B16: TCN-537 (3194_D21) (antibody, V domains shown)
VH: QVQLQQWGSGLLKPSETLSLTCAVYGGSFRDDYWTWIRQPPGKGLEWIGEINHSGRTNYNPSLKSRVTISVDTSLKQFSLKVISVTAADTAVYYCARGTSHVSRYFDWLPPTNWFDPWGQGTQVTVSS
VL: DIVLTQSPGTLSLSPGERATLSCRASQSVSSSYLAWYQQKPGQAPRLVMYGAATRATGIPDRFSGSGSGPDFTLTISRLEPEDFAMYYCQQYGNSPITFGQGTRLEIK
For the molecule B16, the Trimeric HA Binding: RLU in assay [1] worked out at 810 RLU; in assay [2], 2070 RLU; in assay [5], 18700 RLU.

B17: TCN-542 (5079_A16) (antibody, V domains shown)
VH: QVQLQESGPGLVKPSQTLSLTCTVSGGSISSGNYYWNWVRQHPGKGLEWIGYIYYRGSTFYNPSLKSRVTISIDTSKNQFSLRLSSVTAADTAVYYCAKDTRSSLDNYQYGMDVWGQGTTVTVSS
VL: QTVVTQEPSLTVSPGGTVTLTCASSTGAVTSSYFPNWFQQKPGQAPRPLIYSTTIRHSWTPARFSGSLLGGKAALTLSGVQPEDEADYYCLLYSGGDPVAFGGGTKLTVL
As for B17, the Trimeric HA Binding: RLU in assay [1] came to 1540 RLU.
